Fewer inactive variants are shown than the library holds.
Experiments:
biotinyl-Phe-oxazolone = assay: self-aminoacylation, catalytic enhancement (BFO) (fold over background); higher = more active; k-Seq, kA / k0A0; sequences stand for … in GGGAAUGGAUCCACAUCUACGAAUUC…UUCACUGCAGACUUGACGAAGCUG
Procedure, shortened: (§1)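 Each biotinyl-aminoacyl-oxazolone, at 2–1250 μM, was incubated with mutagenized RNA pools (0.43 μM) carrying a 21-nt variable region. The 50 μL reactions contained HEPES/NaCl/KCl/MgCl2/CaCl2 buffer with 5% acetonitrile at pH 6.9–7.0 and ran for 90 minutes at room temperature. After streptavidin capture, RNA was measured by qPCR in triplicate and by Illumina sequencing, and catalytic enhancement was calculated as median kA over the uncatalyzed rate from a pseudo-first-order fit of per-sequence fraction reacted.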

biotinyl-Ile-oxazolone = assay: self-aminoacylation, catalytic enhancement (BIO) (fold over background); higher = more active; k-Seq, kA / k0A0; sequences stand for … in GGGAAUGGAUCCACAUCUACGAAUUC…UUCACUGCAGACUUGACGAAGCUG
Procedure, shortened: as §1

biotinyl-Met-oxazolone = assay: self-aminoacylation, catalytic enhancement (BMO) (fold over background); higher = more active; k-Seq, kA / k0A0; sequences stand for … in GGGAAUGGAUCCACAUCUACGAAUUC…UUCACUGCAGACUUGACGAAGCUG
Procedure, shortened: as §1

biotinyl-Val-oxazolone = assay: self-aminoacylation, catalytic enhancement (BVO) (fold over background); higher = more active; k-Seq, kA / k0A0; sequences stand for … in GGGAAUGGAUCCACAUCUACGAAUUC…UUCACUGCAGACUUGACGAAGCUG
Procedure, shortened: as §1

biotinyl-Leu-oxazolone = assay: self-aminoacylation, catalytic enhancement (BLO) (fold over background); higher = more active; k-Seq, kA / k0A0; sequences stand for … in GGGAAUGGAUCCACAUCUACGAAUUC…UUCACUGCAGACUUGACGAAGCUG
Procedure, shortened: as §1

biotinyl-Trp-oxazolone = assay: self-aminoacylation, catalytic enhancement (BWO) (fold over background); higher = more active; k-Seq, kA / k0A0; sequences stand for … in GGGAAUGGAUCCACAUCUACGAAUUC…UUCACUGCAGACUUGACGAAGCUG
Procedure, shortened: as §1

Sequence | self-aminoacylation (biotinyl-Phe-oxazolone) | self-aminoacylation (biotinyl-Ile-oxazolone) | self-aminoacylation (biotinyl-Met-oxazolone) | self-aminoacylation (biotinyl-Val-oxazolone) | self-aminoacylation (biotinyl-Leu-oxazolone) | self-aminoacylation (biotinyl-Trp-oxazolone)
AAAUUUGCUAAUAGUAGCAAG [Fam3.1 aminoacylation ribozyme variant] | 2.63 | 1.59 | 1.38 | 1.27 | 1.26 | 1.96
CUACUUCAAAGAAUCGGUGUG [Fam1A.1 aminoacylation ribozyme variant] | 1.04 | 0.994 | 0.905 | 0.803 | 1.28 | 1.02
AUUCACCUAGGUCCACGGGUG [Fam2.2 aminoacylation ribozyme variant] | 48.5 | 3.85 | 7.25 | 4.27 | 9.94 | 6.34
AUUACCCUGCUCAUCGACUGA [Fam2.1 aminoacylation ribozyme variant] | 0.34 | 0.856 | 0.687 | 0.82 | 0.475 | 0.534
UAGUUUGCGAAUAGUCGCAAG [Fam3.1 aminoacylation ribozyme variant] | 2.28 | 1.82 | 1.68 | 1.1 | 1.75 | 1.73
CUACUUCUAACAAUCCGUCUG [Fam1A.1 aminoacylation ribozyme variant] | 0.709 | 0.905 | 0.679 | 0.792 | 0.656 | 0.586
CUAAUUCAAACUAUCGGUCUG [Fam1A.1 aminoacylation ribozyme variant] | 1.1 | 0.978 | 1.09 | 0.936 | 0.938 | 0.685
CCACUCUUCAAGCAAUCGGUU [Fam1B.1 aminoacylation ribozyme variant] | 2.51 | 1.53 | 1.53 | 1.6 | 1.16 | 2.27
ACUCACCUAGGUCAUCCGGUG [Fam2.2 aminoacylation ribozyme variant] | 39.5 | 4.6 | 6.22 | 5.7 | 7.63 | 7.81
CUACUUGAAACAAACGGUCUG [Fam1A.1 aminoacylation ribozyme variant] | 0.858 | 1.02 | 1.05 | 0.985 | 0.826 | 1.03
AAGUUUGCUAGUAGUCGCAAG [Fam3.1 aminoacylation ribozyme variant] | 1.13 | 0.746 | 0.745 | 0.773 | 0.706 | 0.851
CCACACUACAUGCAAUCGGUC [Fam1B.1 aminoacylation ribozyme variant] | 0.877 | 0.737 | 0.743 | 0.888 | 0.762 | 0.812
AUUUCCCUGGUCAUCGAGGGA [Fam2.1 aminoacylation ribozyme variant] | 1.28 | 1.47 | 1.44 | 1.59 | 1.83 | 1.65
AUUCAGCUAGGUCAACGGGUG [Fam2.2 aminoacylation ribozyme variant] | 5.84 | 1.81 | 1.92 | 1.83 | 2.43 | 2.6
CCACACUUCAAGCAGUCGGUG [Fam1B.1 aminoacylation ribozyme variant] | 18.4 | 2.18 | 2.34 | 2.29 | 3.56 | 2.1
CUACCUCAAACAAUCGGACUG [Fam1A.1 aminoacylation ribozyme variant] | 1.27 | 0.872 | 0.915 | 0.833 | 0.614 | 1.05
CUAUUUCAAACCAUCGGUCUG [Fam1A.1 aminoacylation ribozyme variant] | 0.809 | 1.03 | 1.09 | 0.988 | 0.94 | 0.708
AUUACUCUGGUCAUCGAGUGA [Fam2.1 aminoacylation ribozyme variant] | 6.25 | 3.77 | 6.63 | 3.78 | 6.98 | 7.48
CUACAUCGAACAAUCGGUCUG [Fam1A.1 aminoacylation ribozyme variant] | 1.04 | 0.909 | 0.922 | 0.942 | 0.946 | 1.17
CGACUUAAAACAAUCGGUCUG [Fam1A.1 aminoacylation ribozyme variant] | 1.15 | 1.33 | 1.48 | 1.17 | 1.26 | 1.06
AAGUUUGCUAAUAGUCGGAAU [Fam3.1 aminoacylation ribozyme variant] | 1.54 | 1.37 | 1.5 | 1.41 | 1.41 | 1.18
CUACUUCAUACAAUCGGUUUG [Fam1A.1 aminoacylation ribozyme variant] | 0.619 | 0.64 | 0.538 | 0.541 | 0.602 | 0.425
AAGGUUUCUAAUAGUCGCAAG [Fam3.1 aminoacylation ribozyme variant] | 2.65 | 1.64 | 1.04 | 1.53 | 1.05 | 1.6
CUACUUCAAACCAUCGGUGUG [Fam1A.1 aminoacylation ribozyme variant] | 1.24 | 1.08 | 1.11 | 1.1 | 1.52 | 0.938
AUUCACCUAGAUCAUCCGGUG [Fam2.2 aminoacylation ribozyme variant] | 17.8 | 3.4 | 3.41 | 3.32 | 3.97 | 2.83
CUUCCCCUAGGUCAUCGGGUG [Fam2.2 aminoacylation ribozyme variant] | 60.1 | 4.92 | 8.7 | 5.07 | 10.5 | 7.71

Sequence | self-aminoacylation (biotinyl-Phe-oxazolone) | self-aminoacylation (biotinyl-Ile-oxazolone) | self-aminoacylation (biotinyl-Met-oxazolone) | self-aminoacylation (biotinyl-Val-oxazolone) | self-aminoacylation (biotinyl-Leu-oxazolone) | self-aminoacylation (biotinyl-Trp-oxazolone)
AUUUCCAUGGUCAUCGAGUGA [Fam2.1 aminoacylation ribozyme variant] | 52.5 | 5.22 | 9.56 | 5.09 | 9.67 | 12
AUUAUCCUGGUCAUCGAGUGC [Fam2.1 aminoacylation ribozyme variant] | 1.72 | 1.29 | 1.77 | 1.25 | 2.16 | 0.981
AAGGUUGCUAAUUGUCGCAAG [Fam3.1 aminoacylation ribozyme variant] | 1.4 | 1.56 | 1.36 | 1.41 | 1.14 | 2.85
CCACACUUCAAGCAAUCGGCA [Fam1B.1 aminoacylation ribozyme variant] | 1.07 | 1.18 | 0.777 | 1.37 | 1.59 | 1.28
UUUACCCUGGUCAUCGAGUUA [Fam2.1 aminoacylation ribozyme variant] | 16.7 | 3.03 | 7.29 | 3.5 | 6.2 | 6.24
AAUUGUGCUAAUAGUCGCAAG [Fam3.1 aminoacylation ribozyme variant] | 3.05 | 1.93 | 2.02 | 1.75 | 2.18 | 2.44
AUUUCCCGGGUCAUCGAGUGA [Fam2.1 aminoacylation ribozyme variant] | 45.6 | 3.37 | 5.43 | 3.93 | 6.51 | 6.24
AUUAGCCUGGUCAUCAAGUGA [Fam2.1 aminoacylation ribozyme variant] | 17.9 | 2.74 | 4.31 | 2.45 | 4.41 | 4.94
AAAUUUGCUAAUAGUCGCAUG [Fam3.1 aminoacylation ribozyme variant] | 2.04 | 2.28 | 2.13 | 1.8 | 2.81 | 3.67
AUUACCUUGGUCACCGAGUGA [Fam2.1 aminoacylation ribozyme variant] | 23.4 | 2.87 | 6.15 | 3.11 | 6.74 | 6.72
CCACACUUCAAGUAAUCGUUC [Fam1B.1 aminoacylation ribozyme variant] | 0.886 | 0.628 | 0.613 | 0.801 | 0.705 | 0.552
CCAGACGUCAAGCAAUCGGUC [Fam1B.1 aminoacylation ribozyme variant] | 0.503 | 1.24 | 1.52 | 1.99 | 1.99 | 0.65
CUACUUCAAGCGAUCGGUCUG [Fam1A.1 aminoacylation ribozyme variant] | 0.917 | 0.77 | 0.769 | 0.781 | 0.799 | 0.654
CUACUUCUAACAAUCGGUCUG [Fam1A.1 aminoacylation ribozyme variant] | 0.785 | 0.658 | 0.608 | 0.693 | 0.585 | 0.532
CUACAUAAAACAAUCGGUCUG [Fam1A.1 aminoacylation ribozyme variant] | 0.674 | 0.808 | 0.934 | 0.799 | 0.738 | 0.539
AUUCAGCUAGGUCAUCGGGAG [Fam2.2 aminoacylation ribozyme variant] | 4.09 | 1.72 | 1.61 | 1.68 | 1.69 | 1.32
UUUGACCUAGGUCAUCGGGUG [Fam2.2 aminoacylation ribozyme variant] | 26.6 | 4.3 | 4.5 | 4.23 | 5.93 | 6.51
AAUUUUGCUAGUAGUCGCAAG [Fam3.1 aminoacylation ribozyme variant] | 2.34 | 2.02 | 1.77 | 1.36 | 1.56 | 1.71
AAGUUUGCUAACCGUCGCAAG [Fam3.1 aminoacylation ribozyme variant] | 0.981 | 0.714 | 0.567 | 0.754 | 0.755 | 0.488
CUACGUCAAACAAUCGUUCUG [Fam1A.1 aminoacylation ribozyme variant] | 0.508 | 0.789 | 0.854 | 0.813 | 0.822 | 0.856
AUUACCAGGGUCAUCGAGUGA [Fam2.1 aminoacylation ribozyme variant] | 17.2 | 3.1 | 4.43 | 3.1 | 5.09 | 5.56
CUACUUCAAAUAAUCGGCCUG [Fam1A.1 aminoacylation ribozyme variant] | 14.5 | 1.11 | 0.902 | 0.985 | 1.36 | 12
CCACACUCCAAGGAAUCGGUC [Fam1B.1 aminoacylation ribozyme variant] | 1.46 | 1.35 | 1.32 | 1.31 | 1.08 | 1.34
ACAGACUUCAAGCAAUCGGUC [Fam1B.1 aminoacylation ribozyme variant] | 68.1 | 2.39 | 2.39 | 2.27 | 3.24 | 38.2
AUAACCUUGGUCAUCGAGUGA [Fam2.1 aminoacylation ribozyme variant] | 27.1 | 2.94 | 5.95 | 3.3 | 6.06 | 7.25

— the supplement of paper PMC9233669
